PMC10786891, “Massively parallel profiling of RNA-targeting CRISPR-Cas13d”
Numbering of substitutions follows the chain as printed. Names and notes keep the numbering of the source.

T1: EsCas13d, nuclease-dead (Eubacterium siraeum, UniProt B0MS50, R295A;H300A;R849A;H854A)
T1 sequence: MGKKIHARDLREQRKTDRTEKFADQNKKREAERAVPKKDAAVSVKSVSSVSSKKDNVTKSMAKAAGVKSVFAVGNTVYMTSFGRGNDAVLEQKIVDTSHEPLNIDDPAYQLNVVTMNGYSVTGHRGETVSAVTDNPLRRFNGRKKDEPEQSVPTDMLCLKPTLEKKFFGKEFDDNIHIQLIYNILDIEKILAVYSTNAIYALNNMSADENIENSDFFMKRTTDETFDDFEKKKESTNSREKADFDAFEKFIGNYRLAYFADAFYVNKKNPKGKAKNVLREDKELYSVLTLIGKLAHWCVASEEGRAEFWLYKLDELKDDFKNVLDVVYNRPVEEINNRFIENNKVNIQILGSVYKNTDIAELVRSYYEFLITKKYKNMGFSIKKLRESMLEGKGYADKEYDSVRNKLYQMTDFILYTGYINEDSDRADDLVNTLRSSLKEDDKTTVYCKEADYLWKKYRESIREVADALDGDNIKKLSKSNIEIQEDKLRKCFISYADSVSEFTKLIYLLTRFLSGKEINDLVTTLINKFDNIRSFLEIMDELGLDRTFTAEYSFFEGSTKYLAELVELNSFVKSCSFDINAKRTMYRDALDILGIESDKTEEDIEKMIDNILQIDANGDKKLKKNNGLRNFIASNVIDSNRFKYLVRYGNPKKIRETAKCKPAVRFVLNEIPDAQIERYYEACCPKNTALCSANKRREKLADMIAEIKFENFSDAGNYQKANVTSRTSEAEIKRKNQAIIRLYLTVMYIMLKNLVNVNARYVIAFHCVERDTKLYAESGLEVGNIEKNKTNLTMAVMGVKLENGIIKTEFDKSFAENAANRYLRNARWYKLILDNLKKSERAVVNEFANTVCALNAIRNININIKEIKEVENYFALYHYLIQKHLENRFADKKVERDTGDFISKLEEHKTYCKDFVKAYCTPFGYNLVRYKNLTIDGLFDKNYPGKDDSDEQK

B1: target 1 MT 5'PFS UGC 3'PFS CCC (mixed)
RNA 1: CACCCGUGCAAAAAUGCAGGGGUCUAAAACUGAGCGGAUAACCUCUCUAUGG
RNA 2: GGGAAUGGAUCCACAUCUACGAAUUCUGCCCAUAGAGAGGUUAUCCGCUCACCCAGAUCGGAAGAGCACACGU
B2: target 1 MT 5'PFS GAC 3'PFS AGA (mixed)
RNA 1: B1 RNA 1
RNA 2: B1 RNA 2 with U27G, G28A, C52A, C53G, C54A
B3: target 1 MT 5'PFS CUU 3'PFS ACA (mixed)
RNA 1: B1 RNA 1
RNA 2: B1 RNA 2 with U27C, G28U, C29U, C52A, C54A
B4: target 1 MT 5'PFS GCU 3'PFS GCU (mixed)
RNA 1: B1 RNA 1
RNA 2: B1 RNA 2 with U27G, G28C, C29U, C52G, C54U
B5: target 1 G15C,A16C (mixed)
RNA 1: B1 RNA 1
RNA 2: B1 RNA 2 with U27G, G28U, C29A, A36C, G37C, C54G
B6: target 1 MT 5'PFS CUC 3'PFS UCA (mixed)
RNA 1: B1 RNA 1
RNA 2: B1 RNA 2 with U27C, G28U, C52U, C54A
B7: target 1 MT 5'PFS GAA 3'PFS AUC (mixed)
RNA 1: B1 RNA 1
RNA 2: B1 RNA 2 with U27G, G28A, C29A, C52A, C53U
B8: target 1 MT 5'PFS GUA 3'PFS CGC (mixed)
RNA 1: B1 RNA 1
RNA 2: B1 RNA 2 with U27G, G28U, C29A, C53G
B9: target 1 MT 5'PFS GGG 3'PFS AAC (mixed)
RNA 1: B1 RNA 1
RNA 2: B1 RNA 2 with U27G, C29G, C52A, C53A
B10: target 1 MT 5'PFS CCU 3'PFS UAU (mixed)
RNA 1: B1 RNA 1
RNA 2: B1 RNA 2 with U27C, G28C, C29U, C52U, C53A, C54U
B11: target 1 complement block 6-12 (mixed)
RNA 1: B1 RNA 1
RNA 2: GGGAAUGGAUCCACAUCUACGAAUUCGUACCAUAGAGAGCAAUAGGGCUCACCGAGAUCGGAAGAGCACACGU
B12: target 1 MT 5'PFS CUC 3'PFS UCG (mixed)
RNA 1: B1 RNA 1
RNA 2: B1 RNA 2 with U27C, G28U, C52U, C54G
B13: target 1 MT 5'PFS GAC 3'PFS AGC (mixed)
RNA 1: B1 RNA 1
RNA 2: B1 RNA 2 with U27G, G28A, C52A, C53G
B14: target 1 MT 5'PFS CCU 3'PFS UAG (mixed)
RNA 1: B1 RNA 1
RNA 2: B1 RNA 2 with U27C, G28C, C29U, C52U, C53A, C54G
B15: target 1 MT 5'PFS GUC 3'PFS UUA (mixed)
RNA 1: B1 RNA 1
RNA 2: B1 RNA 2 with U27G, G28U, C52U, C53U, C54A
B16: target 1 MT 5'PFS ACA 3'PFS UGA (mixed)
RNA 1: B1 RNA 1
RNA 2: B1 RNA 2 with U27A, G28C, C29A, C52U, C53G, C54A
B17: target 1 MT 5'PFS GUA 3'PFS CGU (mixed)
RNA 1: B1 RNA 1
RNA 2: B1 RNA 2 with U27G, G28U, C29A, C53G, C54U
B18: target 1 MT 5'PFS GGC 3'PFS UAG (mixed)
RNA 1: B1 RNA 1
RNA 2: B1 RNA 2 with U27G, C52U, C53A, C54G
B19: target 1 MT 5'PFS GAA 3'PFS AUU (mixed)
RNA 1: B1 RNA 1
RNA 2: B1 RNA 2 with U27G, G28A, C29A, C52A, C53U, C54U
B20: target 1 MT 5'PFS GGC 3'PFS UAU (mixed)
RNA 1: B1 RNA 1
RNA 2: B1 RNA 2 with U27G, C52U, C53A, C54U
B21: target 1 MT 5'PFS ACA 3'PFS UGU (mixed)
RNA 1: B1 RNA 1
RNA 2: B1 RNA 2 with U27A, G28C, C29A, C52U, C53G, C54U
B22: target 1 MT 5'PFS CUU 3'PFS ACU (mixed)
RNA 1: B1 RNA 1
RNA 2: B1 RNA 2 with U27C, G28U, C29U, C52A, C54U
B23: target 1 C6G,G13A (mixed)
RNA 1: B1 RNA 1
RNA 2: B1 RNA 2 with U27G, G28U, C29A, G39A, C46G, C54G
B24: target 1 MT 5'PFS UGC 3'PFS CCG (mixed)
RNA 1: B1 RNA 1
RNA 2: B1 RNA 2 with C54G
B25: target 1 MT 5'PFS UUG 3'PFS ACU (mixed)
RNA 1: B1 RNA 1
RNA 2: B1 RNA 2 with G28U, C29G, C52A, C54U
B26: target 1 MT 5'PFS GUA 3'PFS AGU (mixed)
RNA 1: B1 RNA 1
RNA 2: B1 RNA 2 with U27G, G28U, C29A, C52A, C53G, C54U
B27: target 1 MT 5'PFS GAC 3'PFS AGU (mixed)
RNA 1: B1 RNA 1
RNA 2: B1 RNA 2 with U27G, G28A, C52A, C53G, C54U
B28: target 1 MT 5'PFS GUA 3'PFS AGA (mixed)
RNA 1: B1 RNA 1
RNA 2: B1 RNA 2 with U27G, G28U, C29A, C52A, C53G, C54A
B29: target 1 MT 5'PFS GUA 3'PFS CGG (mixed)
RNA 1: B1 RNA 1
RNA 2: B1 RNA 2 with U27G, G28U, C29A, C53G, C54G
B30: target 1 MT 5'PFS GGG 3'PFS AAG (mixed)
RNA 1: B1 RNA 1
RNA 2: B1 RNA 2 with U27G, C29G, C52A, C53A, C54G
B31: target 1 MT 5'PFS UGU 3'PFS CGA (mixed)
RNA 1: B1 RNA 1
RNA 2: B1 RNA 2 with C29U, C53G, C54A
B32: target 1 MT 5'PFS GUA 3'PFS AGC (mixed)
RNA 1: B1 RNA 1
RNA 2: B1 RNA 2 with U27G, G28U, C29A, C52A, C53G
B33: target 1 MT 5'PFS GGC 3'PFS UAA (mixed)
RNA 1: B1 RNA 1
RNA 2: B1 RNA 2 with U27G, C52U, C53A, C54A
B34: target 1 MT 5'PFS GUA 3'PFS CGA (mixed)
RNA 1: B1 RNA 1
RNA 2: B1 RNA 2 with U27G, G28U, C29A, C53G, C54A
B35: target 1 MT 5'PFS GGC 3'PFS UAC (mixed)
RNA 1: B1 RNA 1
RNA 2: B1 RNA 2 with U27G, C52U, C53A

Target: T1, EsCas13d, nuclease-dead
Experiment: crRNA (strand 1, pre-loaded); Mg2+; 40 mM Tris-HCl pH 7.5, 150 mM NaCl, 6 mM MgCl2, 1 mM DTT, 0.1% Tween-20, 0.2 mg/ml BSA; 25 C; 10 min per concentration, then washed
Conditions: tags: His6-TwinStrep-SUMO cleaved; N-terminal SNAP kept (SNAP-Surface 488); label: 3' end held by stalled T7 RNA polymerase

Row | Binder | Kd [nM]
1 | B1 | ~23
2 | B2 | 28 ± 14
3 | B3 | ~65.5
4 | B4 | 17 ± 5
5 | B5 | ~90
6 | B6 | ~26
7 | B7 | 43 ± 15
8 | B8 | 11.2 ± 1.15
9 | B9 | 35.5 ± 8.5
10 | B10 | ~15
11 | B11 | 16.7 ± 1
12 | B12 | ~85
13 | B13 | 13.6 ± 2.6
14 | B14 | 28 ± 11
15 | B15 | 12.2 ± 2.45
16 | B16 | 15.5 ± 4.5
17 | B17 | 5.66 ± 0.48
18 | B18 | 13.4 ± 1.8

Row | Binder | Kd [nM]
19 | B19 | 24.5 ± 8.5
20 | B20 | 16 ± 4
21 | B21 | 45 ± 12
22 | B22 | 29.5 ± 10.5
23 | B23 | 10.1 ± 0.7
24 | B24 | 11.8 ± 3.85
25 | B25 | 21 ± 5
26 | B26 | 9.9 ± 0.8
27 | B27 | 35.5 ± 10.5
28 | B28 | 12.7 ± 0.8
29 | B29 | 15.2 ± 1.15
30 | B30 | 23.9 ± 3.25
31 | B31 | 60 ± 28.5
32 | B32 | 6.27 ± 0.515
33 | B33 | 20.9 ± 3.75
34 | B34 | 17.8 ± 2.55
35 | B35 | 19 ± 5
